Experimental data taken from the supplement of paper PMC12042874.
± gives the uncertainty stated by the source.

Assay: amyloid nucleation score (Sup35N fusion, yeast selection) (log enrichment); library NNK1; higher = more nucleation; inactive = no reads after selection
In short: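 Yeast lacking psi expressed peptides of 20 random codons fused to Sup35N, received 100 μM copper sulfate for 24 hours, and were then grown for 7 days at 30°C on medium lacking adenine and uracil. Illumina sequencing of input and output plasmid inserts provided the reads. Nucleation scores are DiMSum log enrichments of output over input, centred on the mode of non-aggregating sequences. Any sequence with under 100 input reads was excluded.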

Point of comparison: HSMLI, amyloid nucleation score 0.539 ± 0.61. Against it:
- RAAYACWHFTLYNFSLIVTT — higher, 1.83 ± 0.57
- IASFKWGFLMDYNLYVSSSG — within error, 0.261 ± 0.38
- SYMFWIPLATQWKRVLNRVW — within error, -0.479 ± 0.54
- ALCLSRARSSG — within error, -0.152 ± 0.68
- PCALGECRLVNSVISRGFGR — within error, 0.38 ± 1.2
- SRYSNDLSDIMGDDESRSAH — within error, 0.136 ± 0.28
- SNMNAFYTLEHVMPAKFEIS — within error, 1.07 ± 0.33
- TNPYSWNLYCGFLNTDWVV — within error, 0.787 ± 0.85
- MCLTRSSLEVRQVTIVMWSG — within error, 0.387 ± 0.52
- AWRDTDVASSVICG — within error, 0.932 ± 0.97
- SGSSTVWCAYRMTGQPPGRT — within error, 1.37 ± 0.51
- MDAFTNAWVMGWCMLHCARG — within error, 0.524 ± 0.7
- RWSETR — within error, 0.998 ± 0.48
- LTRDLMCEPVLCGLLPVSGR — within error, 0.314 ± 1.4
- WVDGESAPDDERRQWICDIG — within error, -0.948 ± 1.3
- DFSCGRMGFALERSLAMYRA — within error, 0.041 ± 0.53
- FRGYSGL — within error, 1.46 ± 0.55
- EYMFGYVSLSVDGSTLEFHD — within error, 0.107 ± 0.24
- SLLSYMFQGDDVKCHGSAVL — within error, 1.01 ± 0.76
- QSGPSAVY — within error, 0.362 ± 0.64
- GMFYVLVGENCCFYALVWTL — within error, -0.223 ± 0.23
- IIYNAKE — within error, 0.367 ± 0.36
- GRGSMLFW — within error, 0.942 ± 0.58
- RQDGYPRCIVRVILLECSLI — within error, -0.321 ± 0.66
- RRWRTFLMRCKRNDTSKIRR — lower, -1.36 ± 1.2
- ILGRYNNAVLGVGSEQWSVG — within error, 0.287 ± 0.46
- SVWNILLIV — within error, 0.665 ± 0.34
- EAVSPYMYNYFRMANEQ — within error, 0.311 ± 0.42
- SKLLNVDLTPCRSRTTLFVC — within error, 1.29 ± 0.47
- VLFESIRWMSG — within error, -0.142 ± 1.1
- VRKYRRWSRMIWGCYNNFVF — lower, -1.44 ± 0.53
- SYVVTVLHNWVWEEGDLEYE — higher, 4.36 ± 0.11
- IVEFASFSVQVNARNDLHLV — higher, 1.73 ± 0.28
- KIATKGNIF — lower, -0.951 ± 0.53
- HCNSNVTWKV — within error, 0.414 ± 0.63
- DWLHQSRL — within error, 0.239 ± 0.42
- NTVRNMSVNELFVSFDRGWF — higher, 4.83 ± 0.063
- YYRKHFRLYIIIWDLFKI — within error, 0.282 ± 0.97
- SDYMCTKSSIKLNTYIDVKD — within error, -1.6 ± 2.1
- WSIKFQS — within error, -0.123 ± 0.49
- SSYCNLVASIL — within error, 0.649 ± 0.53
- TLLSNWVEMNPLYFMLDLPY — within error, 0.225 ± 0.48
- LKVPCL — within error, -0.067 ± 0.59
- SCAWRYNICTLISVRWVCK — within error, 0.756 ± 0.34
- VQEYGASCKSMTGLGTLKCK — within error, 0.876 ± 0.81
- FSQRMGICYNVREFCNEFRC — higher, 1.47 ± 0.14
- TFSFTAYNPCFDSFSTVGLS — within error, -0.147 ± 0.45
- TSSAFVCVENTLWTEVVEPM — within error, 0.411 ± 0.55
- GAGHGELDKWNPSDGPQLLW — within error, -0.096 ± 0.77
- TSSCFMESRLK — within error, 0.179 ± 0.59
- FVATNPVL — within error, 0.588 ± 0.42
- FLRSIKWVTVVS — within error, 0.51 ± 0.28
- DSGTLDQYH — within error, 0.157 ± 0.86
- GYFYFRQIIQSDRPFIYNIP — within error, -0.16 ± 0.38
- TVYIG — within error, 0.258 ± 0.3
- LAFNTIYWVIRIESFWLSAA — within error, -0.189 ± 0.36
- YDYGVESLRLVVLCNDLWFL — within error, -0.346 ± 0.4
- KNVMVFVQDWIVVSCMRVEK — higher, 2.39 ± 0.14
- KISYADF — within error, 0.646 ± 1.1
- FTRKLPSFVLL — within error, 0.392 ± 0.61
- YLIMGNVFNVAVVGGIGCVE — within error, 0.345 ± 0.29
- NLLGYVNVQVGAVYTGNNRL — higher, 7.602 ± 0.066
- TPTTLKDYYPRAGNINRMTY — within error, -0.15 ± 0.28
- RDVDRGMHQMAPSTGVRLVL — higher, 2.81 ± 0.14
- TLIIGYRA — within error, 0.964 ± 0.51
- LVTRGFEVRGDHQVIKYFLA — lower, -0.6 ± 0.49
- QYYFLLYAKSDLSKWEHHQD — within error, -0.282 ± 0.97
- VWEFD — lower, -0.537 ± 0.42
- VCINFHYLVGINVIRRNDWV — higher, 4.48 ± 0.1
- RYHRTGCLGILWLSLSHRLS — within error, 0.418 ± 0.59
- VVKVWPYYSYVSMV — within error, -0.114 ± 0.55
- WCSAMKISTRAPRWENIWSM — within error, 0.612 ± 0.62
- MSVVWSWMYFIKLDTFA — lower, -0.348 ± 0.23
- IFDYSTLECESDEGEAEGMS — within error, 0.572 ± 0.81
- LIALLLAWDMYI — within error, 0.18 ± 0.32
- SAASPFFFSDCGWPSGILNY — within error, 1.26 ± 0.67
- YVGAMCLTRGKVRRSEERN — within error, 0.553 ± 0.54
- PRSANCMCDYDRTAM — within error, 0.316 ± 0.34
- TVLGQH — within error, -0.058 ± 0.29
- CHIWPDVLNVCAILGDLRKR — within error, 1.18 ± 0.16
- LDGTLVLTYL — within error, 0.134 ± 0.42
- ITSNHSVWGIMLLKLVTGSI — within error, 0.496 ± 0.48
- LRKNSPTFRGSPCQQWYVER — within error, 1.27 ± 0.56
- TYRLIRSFC — within error, 0.368 ± 0.4
- PMSLPTYLRIPRFVLLAWAE — within error, -0.034 ± 0.39
- NRSGGTSAIDYHSWLVYHAG — within error, -0.161 ± 0.28
- VWFYRLIVSEVGFFRVKLKM — lower, -1.58 ± 1.4
- VRSPFSIHRRFLTLGIQEFS — within error, 1.4 ± 0.74
- CFIFFPSKIHPLICTKTRAK — within error, 0.446 ± 0.34
- SKQFQASFHRVYSSVFSGWH — within error, 0.669 ± 0.38
- QFILRDNVVRRMKFRGVPNF — higher, 2.22 ± 0.55
- CELGTIDHSEKMLMVNWCAG — within error, 0.967 ± 0.34
- YTLMLCNVASVDSWI — higher, 5.05 ± 0.063
- RVNMWRYI — within error, 0.295 ± 0.4
- IIQRAM — within error, 0.09 ± 0.7
- IDVGSHFCSFQEHKACGTSL — within error, 0.31 ± 0.47
- VMTWTLCRTRG — within error, -0.275 ± 0.4
- VFSKNFRVVIFTSNRSLFNK — within error, 0.595 ± 0.72
- RWPTRNFQGTVRYAR — within error, -0.62 ± 0.7
- EVAFRVTCCSCWLISRNVGR — higher, 2.77 ± 0.15
- VCSGTFGYHRRYEWDWVLKG — within error, 0.215 ± 1.2
- RCFECEGALV — within error, -0.08 ± 1.1
- SRYRA — higher, 5.11 ± 0.076
- ISAVGKYESDTVGPSKND — within error, 0.507 ± 1
- DISRMMSISRLFFYNNVLFT — lower, -0.524 ± 0.44
- RAKTWDGRGAKQP — within error, 1.22 ± 0.64
- GLGYPSVFSEHCVGLRDCEL — within error, -0.189 ± 1.7
- SKSDQSWYFL — within error, -0.227 ± 0.68
- TNSFSSSLRMV — within error, 0.076 ± 0.88
- ALSSWLLFGSTCQDSDCFKD — within error, 1.16 ± 0.76
- CNYTSPPLSVKDRASLCHTN — within error, -0.301 ± 0.93
- AHLAVPSQLNECFIVSLWV — within error, 0.328 ± 0.76
- TSIFDEMSHVEEVRRTMIRG — within error, 0.209 ± 0.35
- NNPEINFYKVWAIKSYF — higher, 2.83 ± 0.13
- FKGRNSFPLLDSWVIHRIGI — within error, 0.422 ± 0.9
- NHCCRVFMCFRIRGMYNAET — higher, 4.05 ± 0.085
- MYLVDASMSKPLIVLKSCN — within error, 0.686 ± 1.1
- LLSGNGQRLSSEQTCRELVG — lower, -0.727 ± 0.28
- LLQGCNEVPVRKSKVVSSVR — within error, 0.441 ± 0.24
- RIDYWVIPGAWNSTCWRYTT — within error, 1.49 ± 0.45
- NTQNRSEVNQGVVGQVR — within error, -0.378 ± 0.36
- SSNRLSSMQG — within error, 1.09 ± 0.38
- DYSNERLTDGLRMGGTRVSG — within error, 0.251 ± 0.54
- SFAHHAFIGFILSSWWN — within error, -1.06 ± 2.4
- LGYIEKFWVGGHYLFLPTIY — within error, 0.073 ± 1.5
- RSMRDLDPTMVFGSVNSLGW — within error, 0.166 ± 0.63
- LFPRVMN — within error, 0.338 ± 0.58
- RHFEDYMELSSLSLGMGEG — within error, -0.394 ± 0.63
- SFLWYIGFNSWRFCGRYTTL — within error, 0.174 ± 0.5
- LLLLVRFYGSGSPHSGAEPI — within error, -1.14 ± 1.5
- WFAGAGLIMRNVRSGW — within error, -0.126 ± 0.66
- AIQCSTARNDVECKLFTYVL — within error, 0.086 ± 0.71
- GWSIMVGQMASLLWCIRAGT — within error, 0.116 ± 0.3
- TGIYYWNRKLGRYRLHVHVV — within error, -0.15 ± 0.97
- RQRTIFWLMFWELAMFNCHM — within error, -0.423 ± 0.74
- KGKPYFAEMLHIMSFVWSSD — within error, 1.3 ± 0.6
- VSNTWYLTVNLFLYIIPCN — higher, 6.755 ± 0.058
- GDHFPEDGYSLEIADR — within error, -0.737 ± 1.2
- LGFSSVYWESCSL — within error, -0.275 ± 0.58
- KFIVWTFWSYLLTATRM — within error, 0.157 ± 0.79
- SKKIVGIFYKVCSRRLFMVC — within error, 0.456 ± 0.6
- TSEQYESLCWVSSLRRIFQK — within error, 0.043 ± 0.48
- VTYTEYCSVLLKTH — within error, -1.81 ± 2.4
- PETIW — within error, 1.49 ± 0.5
- PGSGCNVFKL — lower, -0.403 ± 0.25
- SVSMY — within error, 0.068 ± 0.27
- FRIYLYLTCGLCSIIHYFVP — within error, 0.818 ± 0.25
- FINGFGEDLKHIREVEVYLY — higher, 4.07 ± 0.084
- CSGLNVSLSRRQVVVLSV — lower, -0.632 ± 0.33
- IIIRRISGGFAVPSYAHLHS — within error, 0.53 ± 0.32
- KQTLLYHSSGSCCWELVSWW — higher, 4.39 ± 0.097
- VHTINRTQLYNIH — within error, -0.215 ± 0.65
- LELLSSWWYSSIYTGTDCVT — higher, 2.08 ± 0.25
- SNLVGEVYCNL — within error, 0.914 ± 0.57
- AIHMEHCCFVNVQRILRFVV — higher, 4.68 ± 0.092
- LAWWLCGNLVTWYIITDGQW — within error, 1.04 ± 0.55
- YVRIVIAYFKFSKQFSSQLV — within error, 0.089 ± 0.22
- IKMRWISFKCLPYCMFKNRI — within error, -0.355 ± 0.35
- SLSFVVSGMRFAFAGFFMVS — within error, -0.055 ± 0.21
- YHNLVLQSICDCSSLADLGW — higher, 6.66 ± 0.059
- SPMMVNVYATDDVDLPSWLM — within error, -0.293 ± 0.47
- YTVRGRDYNGAM — within error, -1.3 ± 2.4
- LLWNDCGFLRWASGH — higher, 2.59 ± 0.11
- HSGQYCSAHPGFVK — within error, -0.49 ± 0.5
- RGMIFLHQASCLHRDN — lower, -0.836 ± 0.61
- LKIEPRC — lower, -0.512 ± 0.4
- VTKVTLMLFLSCWLF — lower, -0.677 ± 0.47
- GYNVAFILHTTVKCVCVEM — within error, 0.757 ± 0.41

In the case of LAMPLFPLQDGSW, the amyloid nucleation score is reported as “inactive”.
With QIIWVIRFLLVCVFTLSKLV the amyloid nucleation score was “inactive”.
In the case of GHWSYYKVTSYYI, the amyloid nucleation score is reported as “inactive”.
With NVIFPTYRFVRFPSYMTLGW the amyloid nucleation score was “inactive”.
